Measured values: patent US20240034762A1 (YALE UNIVERSITY, published 2024)
Substitutions are numbered along the chain they refer to. In names and notes the source's numbering stands. No end group written: not given here.

T1: full-length human α-Klotho with a C-terminal HA-tag on HEK293 cells stably co-expressing FGFR1c (human) (UniProt Q9UEF7)
T1 sequence: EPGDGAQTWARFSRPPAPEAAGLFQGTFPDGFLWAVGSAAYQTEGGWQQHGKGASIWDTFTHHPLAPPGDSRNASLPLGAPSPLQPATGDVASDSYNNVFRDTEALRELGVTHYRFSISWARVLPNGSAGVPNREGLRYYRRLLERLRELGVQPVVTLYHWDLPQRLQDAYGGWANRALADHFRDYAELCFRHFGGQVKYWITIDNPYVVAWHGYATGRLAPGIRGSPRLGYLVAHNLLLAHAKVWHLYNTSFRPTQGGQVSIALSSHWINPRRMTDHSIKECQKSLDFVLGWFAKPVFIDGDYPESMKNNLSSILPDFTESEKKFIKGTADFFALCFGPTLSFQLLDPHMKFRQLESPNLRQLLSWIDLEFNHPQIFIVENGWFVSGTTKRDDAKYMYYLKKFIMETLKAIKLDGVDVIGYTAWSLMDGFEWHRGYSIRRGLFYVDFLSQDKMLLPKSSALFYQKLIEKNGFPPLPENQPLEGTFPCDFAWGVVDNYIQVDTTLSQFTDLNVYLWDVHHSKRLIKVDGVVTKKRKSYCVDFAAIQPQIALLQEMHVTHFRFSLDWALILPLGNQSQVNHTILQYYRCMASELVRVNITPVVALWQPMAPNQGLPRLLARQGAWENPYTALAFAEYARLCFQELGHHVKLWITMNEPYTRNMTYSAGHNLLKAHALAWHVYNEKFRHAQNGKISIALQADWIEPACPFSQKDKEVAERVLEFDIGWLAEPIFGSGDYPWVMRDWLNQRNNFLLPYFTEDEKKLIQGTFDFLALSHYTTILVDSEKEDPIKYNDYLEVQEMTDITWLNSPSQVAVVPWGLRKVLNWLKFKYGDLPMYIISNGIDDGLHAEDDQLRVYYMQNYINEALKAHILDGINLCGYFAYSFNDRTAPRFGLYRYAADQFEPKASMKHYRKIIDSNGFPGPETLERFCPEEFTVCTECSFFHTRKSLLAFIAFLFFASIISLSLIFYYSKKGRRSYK

T2: soluble extracellular domain of human α-Klotho (aa 1-980) fused to a 6xHis tag (human, UniProt Q9UEF7 34-980)
T2 construct: Secreted from HEK293 EBNA cells; also called sKLA; soluble α-Klotho
T2 sequence: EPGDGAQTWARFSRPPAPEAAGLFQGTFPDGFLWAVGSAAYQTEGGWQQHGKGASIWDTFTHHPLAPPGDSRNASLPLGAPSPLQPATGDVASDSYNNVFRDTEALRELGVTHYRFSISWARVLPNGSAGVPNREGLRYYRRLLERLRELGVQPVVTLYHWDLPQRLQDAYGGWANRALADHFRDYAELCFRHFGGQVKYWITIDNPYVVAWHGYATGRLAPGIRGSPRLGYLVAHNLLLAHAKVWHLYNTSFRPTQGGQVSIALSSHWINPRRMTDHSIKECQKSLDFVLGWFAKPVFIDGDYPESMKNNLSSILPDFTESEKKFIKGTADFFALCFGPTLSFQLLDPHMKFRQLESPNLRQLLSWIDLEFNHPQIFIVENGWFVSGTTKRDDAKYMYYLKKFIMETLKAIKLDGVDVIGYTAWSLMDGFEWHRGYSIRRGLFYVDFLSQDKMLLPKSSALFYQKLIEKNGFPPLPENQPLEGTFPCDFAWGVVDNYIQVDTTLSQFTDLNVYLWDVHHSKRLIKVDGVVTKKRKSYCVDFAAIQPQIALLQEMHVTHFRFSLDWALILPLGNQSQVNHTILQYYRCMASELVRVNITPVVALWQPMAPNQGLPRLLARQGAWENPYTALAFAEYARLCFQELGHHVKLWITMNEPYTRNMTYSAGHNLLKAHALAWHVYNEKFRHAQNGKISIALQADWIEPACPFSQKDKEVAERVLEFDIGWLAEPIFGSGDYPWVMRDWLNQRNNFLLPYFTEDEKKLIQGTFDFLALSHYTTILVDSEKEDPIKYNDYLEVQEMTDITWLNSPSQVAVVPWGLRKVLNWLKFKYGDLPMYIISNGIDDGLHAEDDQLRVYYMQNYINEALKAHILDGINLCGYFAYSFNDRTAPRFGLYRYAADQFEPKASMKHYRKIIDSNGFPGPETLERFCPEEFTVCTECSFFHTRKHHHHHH

T3: full-length human α-Klotho with a C-terminal HA-tag on HEK293 cells stably co-expressing FGFR1c (human, UniProt Q9UEF7 34-1012)
T3 sequence: T1 sequence

B1: human IgG1 Fc fused to the full-length C-terminal tail of human FGF23 (aa 180-251) (Fc fusion, not shown: a dimerising Fc or GST)
chain: SAEDDSERDPLNVLKPRARMTPAPASCSQELPSAEDNSPMASDPLGVVRGGRVNTHAGGTGPEGCRPFAKFI
B2: human IgG1 Fc fused to R1 (aa 180-205) of human FGF23 (Fc fusion, not shown: a dimerising Fc or GST)
chain: SAEDDSERDPLNVLKPRARMTPAPAS
modifications: not fully specified (N-terminus); also: dimeric Fc fusion protein, Fc-R1 junction/linker not given here
B3: GST fusion of the full-length C-terminal tail of human FGF23 (aa 180-251) (other)
chain: B1 chain
notes: Expressed in E. coli BL21-Gold (DE3); also called GST-FL; FL tail of FGF23; not shown: glutathione S-transferase encoded by the pGEX4T1 vector (GE Healthcare)
B4: GST fusion of repeat 1 (R1, aa 180-205) of the human FGF23 C-terminal tail (other)
chain: SAEDDSERDPLNVLKPRARMTPAPAS
modifications: also: GST fusion partner (recombinant, not part of given chain)
notes: Expressed in E. coli; also called GST-R1; not shown: glutathione S-transferase encoded by the pGEX4T1 vector (GE Healthcare)
B5: GST fusion of repeat 2 (R2) of the human FGF23 C-terminal tail (other)
chain: SAEDNSPMASDPLGVVRGGRVNTHAGGTGPEG
modifications: not fully specified; also: fused to glutathione S-transferase (pGEX4T1), vector linker residues not given here
notes: The plasmid limits are used here; also called GST-R2; not shown: glutathione S-transferase encoded by the pGEX4T1 vector (GE Healthcare)
B6: FLAG-tagged human FGF23 D188A mutant expressed in Expi293F cells (ligand)
chain: DYKDDDDKYPNASPLLGSSWGGLIHLYTATARNSYHLQIHKNGHVDGAPHQTIYSALMIRSEDAGFVVITGVMSRRYLCMDFRGNIFGSHYFDPENCRFQHQTLENGYDVYHSPQYHFLVSLGAAKAAFLPGMNPPPYSQFLSRRNEIPLIHFNTPIPRQHTQSAEDDSERAPLNVLKPRARMTPAPASCSQELPSAEDNSPMASDPLGVVRGGRVNTHAGGTGPEGCRPFAKFI
B7: FLAG-tagged human FGF23 (aa 25-251) expressed in Expi293F cells (ligand)
chain: B6 chain with A172D
modifications: O-linked glycosylation (sites not given); Cys206-Cys244 disulfide bridge
notes: also called FGF23-WT; mFGF23-WT
B8: FLAG-tagged human FGF23 C206S/C244S mutant expressed in Expi293F cells (ligand)
chain: B6 chain with A172D, C190S, C228S
modifications: O-linked glycosylation (sites not given)
notes: also called FGF23-CS; mFGF23-CS
B9: FLAG-tagged human FGF23 C206S/C244S/D188A mutant expressed in Expi293F cells (ligand)
chain: B6 chain with C190S, C228S
notes: also called FGF23-CS D188A
B10: full length human FGF23 (aa 25-251) expressed in E. coli (ligand)
chain: YPNASPLLGSSWGGLIHLYTATARNSYHLQIHKNGHVDGAPHQTIYSALMIRSEDAGFVVITGVMSRRYLCMDFRGNIFGSHYFDPENCRFQHQTLENGYDVYHSPQYHFLVSLGAAKAAFLPGMNPPPYSQFLSRRNEIPLIHFNTPIPRQHTQSAEDDSERDPLNVLKPRARMTPAPASCSQELPSAEDNSPMASDPLGVVRGGRVNTHAGGTGPEGCRPFAKFI
B11: human FGF23-R1 (aa 25-205) expressed in E. coli (ligand)
chain: YPNASPLLGSSWGGLIHLYTATARNSYHLQIHKNGHVDGAPHQTIYSALMIRSEDAGFVVITGVMSRRYLCMDFRGNIFGSHYFDPENCRFQHQTLENGYDVYHSPQYHFLVSLGAAKAAFLPGMNPPPYSQFLSRRNEIPLIHFNTPIPRQHTQSAEDDSERDPLNVLKPRARMTPAPAS
B12: human FGF23-R2 (aa 25-179 fused to aa 212-243) (ligand)
chain: YPNASPLLGSSWGGLIHLYTATARNSYHLQIHKNGHVDGAPHQTIYSALMIRSEDAGFVVITGVMSRRYLCMDFRGNIFGSHYFDPENCRFQHQTLENGYDVYHSPQYHFLVSLGAAKAAFLPGMNPPPYSQFLSRRNEIPLIHFNTPIPRQHTQSAEDNSPMASDPLGVVRGGRVNTHAGGTGPEG

Target: T1, full-length human α-Klotho with a C-terminal HA-tag on HEK293 cells stably co-expressing FGFR1c (human)
Assay: cell-based or functional assay

| Binder | complete inhibition of FGF23-induced MAPK stimulation in HEK293 cells co-expressing α-Klotho and FGFR1c [nM] |
| --- | --- |
| B1 | 100 to 250 |
| B2 | 100 to 250 |
| {human IgG1 Fc (aa 223-449)}-SAEDNSPMASDPLGVVRGGRVNTHAGGTGPEG (Fc fusion, not shown: a dimerising Fc or GST, also: R2 given as aa 212-243 or S212-T239) [human IgG1 Fc fused to R2 of human FGF23] | 100 to 250 |

Target: T2, soluble extracellular domain of human …
Assay: BLI (Octet); GST fusion captured on anti-GST biosensor, sKLA in solution at 6.25-200 nM, 1:1 fit, mean ± S.D. of 3 experiments
Protocol: (§1) Kinetic parameters and dissociation constants of sKLA binding to the various forms of full length FGF23 or GST-fused C-terminal fragments of FGF23 were studied using Bio-Layer Interferometry (BLI). Octet RED96 system (Pall ForteBio) equipped with anti-mouse IgG Fc (AMC) biosensors was used to study interactions between α-Klotho and FLAG-tagged FGF23. Biosensor tips were loaded with anti-FLAG M2 antibody (Millipore Sigma) at 5 μg/ml for 2 min, washed in BLI buffer (25 mM HEPES, 150 mM NaCl, pH 7.5, 0.002% Tween-20, 1 mg/mL BSA) for 60 s, and then loaded with FLAG-tagged FGF23 at 5 μg/ml for 4 min. Alternatively, anti-GST biosensor tips were loaded with 5 ug/ml GST fused with various FGF23 C-terminal fragments for 15 s. Subsequently, ligand-loaded sensor tips were dipped into microplate wells containing different sKLA concentrations, ranging from 6.25 nM to 200 nM in 2-fold dilutions of BLI buffer. After each binding cycle the sensor tips were regenerated with 10 mM glycine (pH 1.5). The collected data were referenced using a parallel buffer control subtraction, and sensograms were fitted globally to a 1:1 Langmuir binding model using ForteBio Data Analysis 10.0 software provided by the manufacturer.
To examine the significance of each of the two FGF23 repeats in α-Klotho binding and receptor activation, bio-layer interferometry (BLI) analyses was applied to measure the kinetic parameters and dissociation constants of each repeat alone or the entire C-terminal tail of FGF23 towards sKLA. To that end, GST-fusion proteins expressing either full length (FL) tail of FGF23 (amino acids […]), the first repeat R1 (amino acids S180-S205), or the second repeat R2 (amino acids […]) were produced in E. coli (FIG. 6) and immobilized on BLI sensors. sKLA was produced in HEK293 EBNA cells and used as an analyte in the BLI measurements (see elsewhere herein).

| Binder | Kd [nM] | koff [s⁻¹] | kon [M⁻¹ s⁻¹] |
| --- | --- | --- | --- |
| B3 | 15 | 0.0031 | 210000 |
| B4 | 20 | 0.0041 | 210000 |
| B5 | 17 | 0.0034 | 200000 |

Target: T2, soluble extracellular domain of human …
Assay: BLI; FLAG-tagged FGF23 captured by anti-FLAG M2 on anti-mouse Fc sensors, sKLA 6.25-200 nM as analyte, 1:1 fit
Protocol: FIG. 10A: BLI sensorgrams of binding of FGF23-WT, FGF23-CS, FGF23 D188A, and FGF23-CS D188A to sKLA. Biosensors coated with anti-mouse-Fc antibody was used to immobilize anti-Flag antibody followed by capturing Flag-tagged FGF23-WT or FGF23-CS. Biosensors were then dipped into solutions containing a series of concentrations of sKLA (200, 100, 50, 25, 12.5, and 6.25 nM). The resulting sensorgrams were fitted with a 1:1 ligand:receptor binding model to calculate kinetic parameters and dissociation constants. FIGS. 10B-10C: HEK293 cells stably expressing FGFR1c together with α-Klotho were left unstimulated or stimulated with increasing concentrations of FGF23-WT or FGF23-CS mutant, as indicated, for 10 minutes at 37° C. Cell lysates were subjected to SDS-PAGE and analyzed for serine phosphorylation of FGFR1, tyrosine phosphorylation of FRS2 and for MAPK activation by immunoblotting with anti-FGFR1-pS, anti-pFRS2 and anti-pMAPK antibodies, respectively and with anti-MAPK as a control. FIG. 10D: Schematic diagram depicting the bivalency of the C-terminal tail of FGF23 binding to α-Klotho.
as §1

| Binder | Kd [nM] | koff [s⁻¹] | kon [M⁻¹ s⁻¹] |
| --- | --- | --- | --- |
| B6 | 13 | 0.0036 | 280000 |
| B7 | 14 | 0.0034 | 260000 |
| B8 | 18 | 0.0042 | 230000 |
| B9 | 18 | 0.0044 | 250000 |

Target: T3, full-length human α-Klotho with a …
Assay: cell-based or functional assay

| Binder | activation of MAPK response in HEK293 cells co-expressing FGFR1c and α-Klotho; ligand concentration at saturation [nM] |
| --- | --- |
| B10 | 0.1 |
| B11 | 0.1 |
| B12 | 0.1 |
